Laboratory results taken from publication PMC4196864.

Target: paclitaxel-stabilized microtubules assembled from purified porcine brain tubulin (porcine) (UniProt P02550)
Experiment: co-sedimentation

- fold lower band intensity in MT pellets than the T758A/T762A mutant: 1.4 fold
Substance: 6xHis/mCherry-tagged XMAP4 phosphomimetic mutant (T758E/T762E) (natural protein)
